# Assay: soluble on expression in E. coli; label from the status in PepcDB or PDB records
row,Sequence,soluble on expression in E. coli
1,EVKQFNTYANNLAKIKQKVILMGLLTEAKLEQYKGLSVDEVEAQTEFSFQDAIYSLSPYEKLNYVEAVARKSLHQAEAYLSNAFNRQNAIMYFRSYTGSKLILERPIKALEGVKATFDVDWCKSNYSCVLAAWKEQLTDRVLFSLPFKTTYSDDMAISIMSPVYFQGELVGEFSEQLYLSSLYNEGKAVDVQISNGNKQMVIYFSGYPWPSFAYTQSFVADNNNLIVYMYPFSKV,not soluble
2,MSLNKLEKEASVFFKKNQESVSQDFKKKVSSIEMFSTSLNSEENQSLDRLFLSETQNLSDEESYQEDVLSVKLLTSQIKAIQKQHVLLLGEKIYNARKILSKSCFSSTTFSSWLDLVFRTKSSAYNALAYYELFISLPSTTLQKEFQSIPYKSAYILAARKGDLKTKVSVIGKVCGMSNASAIRVMDQLLPSSRSKDNQRFFESDLEKNRQLSDLLVELLRIVCSGVFLSPYNENLLQQLFEVYKQKSEGHHHHHH,soluble
3,QESVEDSLATVKVVLIPVGQEIVIPFKVDTILKYLKDHFSHLLGIPHSVLQIRYSGKILKNNETLVQHGVKPQEIVQVEIFSTNPDLYPVRRIDGLTDVSQIITV,soluble
4,MGSDKIHHHHHHMILPDRKQILDRELIRRIADTTISGSGHSDGLSEYASIRKAAFAFVESAVLGDQAYSPIENAELAFIVWILAALDENIITARTIIKARDTVYYYLRLVEHYEDLEEFGSRLGIEISVFGEQIGKDHLYRIGVADFATYASRVTGSKYRLSNQIVREGYVYVDEDVMAKVLREAFVSFMFDTLDQIRYYDAIETIKSVLDDLEKIRESYRKAHNVRMIAGKGDASMFPPCMKEIIKNLESGVNVSHMGRLALASFLHKAGYSEDEIVPYFRNAPDFDENITRYQIKHISGEISGTEYTPPKCETMRSNHLCYMDDDPLCHREWMKHPLTYYEVKRRNRKIR,not soluble
5,MGSDKIHHHHHHMSMTDTTLAETEILLAQPRGFCAGVDRAIEIVERAIKLHGSPIYVRHEIVHNAYVVEDLRKKGAIFIERLEEVPPGNTVIFSAHGVSKAVRSEAEIRGLRVYDATCPLVTKVHIEVAKMRQDGFDIVMIGHKGHPEVEGTMGQAGEGMHLVEDIEDVQALQLADPERIAFVTQTTLSVDDAAQIIAALKAKYPSIREPKKQDICYATQNRQDAVKFMAPQCDVVIVVGSPNSSNSNRLRELAEKLGVPAYMVDSPDQIDPVWVEGKRRIGVTAGASAPEVLAQAVIARLRELGVRNVRALDGIEENIAFPLPRGLGLPA,not soluble
6,MKRDGHTHTEFCPHGTHDDVEEMVLKAIELDFDEYSIVEHAPLSSEFMKNTAGDKEAVTTASMAMSDLPYYFKKMNHIKKKYASDLLIHIGFEVDYLIGYEDFTRDFLNEYGPQTDDGVLSLHFLEGQGGFRSIDFSAEDYNEGIVQFYGGFEQAQLAYLEGVKQSIEADLGLFKPRRMGHISLCQKFQQFFGEDTSDFSEEVMEKFRVILALVKKRDYELDFNTAGLFKPLCGETYPPKKIVTLASELQIPFVYGSDSHGVQDIGRGYSTYCQKLEHHHHHH,soluble
7,MQSFTADINEINITNGKLDFSDSSLTPKFSAGIYSLNGDITGLSSNEDSRAKIDLKGKVDKYAPVIIKGSVNPLSHDAFTDIDMLFNGIELTTFTPYSGKFAGYAIDKGKLSLGLNYKLSNNKLVAENNVTLDQLTLGEVVNSEEATSLPIKFALSLLEHHHHHH,not soluble
8,MGSDKIHHHHHHVTSQAPVEVMTDIMTKFTSYIGKRLPTDIKEKLADLREAETNPMANVLFDSMAENQEAADKLNRPSCQDTGVIQYFITAGAKFPLLGELEEILRNATLGATKLGPLRHNAVEAFDEKNTGTNTGSRIPWLDWEIVPNDDGVIIDVYMAGGGCTLPGASTVLMPGQGYEGVVDFVFDVVTSRGINACPPLLIGVGVSTSAETAARLSKKAILRPVGSHHDNANAAKMETLLEDGLNELGIGPQGLTGNSSVMGVNIESSARHPSTIGVAVSTGCWAHRRGRIRFNADLSYEIVSHEGVVL,not soluble
9,MALNLKQRLEQKFEEEIRFFKGMVSQPKKVGAIVPTSSITAKKMASVINPHSGLPVLELGPGTGVITKAILARGIKPESLTAIEYSTDFYNQLLRSYPGVNFVNGDAFDLDATLGEHKGQMFDSVISAVPMLNFPMAARIKLLDELLKRVPHGRPVVQISYGPISPIVAQPHLYHIRHFDFIVRNIPPAQLWTYTRALEHHHHHH,not soluble
10,MAHHHHHHMGGVRIARCNPKLLDFVTWAVMKGCRLFQRVHVTPLGLVATERIPEFDFVAVVPVEATQSLLSIADDPSFALKVSAERHGEPVPFWEDLTRGSFAFLGFLTKALLTGHPRGVQTYLDVLPFDPAMPIGKMADAAQTTKGYKEWAAPLVAQCKVEESDFNAAFRHAYCLFRRHAIPLWSTSDASGSGHPYFQQSPYARRGQGELMGMVPVMDLALHSPQPNAMIGYPDEEMLQWLSLHKKAAVQQEKGYFVMQAFRDIEEGEVISVNKNAYFNFDDDAFEAWFGYPNVSQVPAEGSGELSSGCKPNGGEGAAVNCAL,soluble
11,MTHVTLRSEFETLIDPYAPVAQVGTGFDFTEGPIWHPIDHYLLFSDMPGDVRRRWDARRGMAEVKRPSNKCNGMTYDAELNLIVCEHATSSLIRERPDGRREVLASHFGGQELNSPNDVCVHSSGAIYFSDPWYGRMPVYGVERPRQLGFQGVYRVMPGGEPKLVVDRNLFDQPNGLCFSPDERLLYVNDTVQALIRVFDVNADGTLSNARVFASSIKSELEPGLPDGMKCDQHGNVWVTAPGGVWVYSPRGELLGKVRVPELVANLAWGGPDFRTLYLTSTHSVYAIPTRVGPRHEPYMSGRRGGAGASAGPAAAAPILTDGEMRLDPQRCAMIIQDLQNDVIMDGGAFDGSGAPAHAKQQHVVENVRRLAEAARARGVAIIHVWFVVEPGAPGVTLNAPLFEGLVDSKAMVRGSWGAAPVSGLEPRPGDFVVEKMRMSAWEGTRLETILKATGRDMIINTGAWTNMSVEHTARTGADKGYFMIVPEDCCSTMNADWHSASINFAMQNVAIVTRADAVIRALGLEHHHHHH,not soluble
12,MPVNATGVSFSSFGISYHKDNSFRGTIRGKNDEVVKCSMGERSIRFNVNKFSGCILETVSRQSTKDIHGWVSDERTVYPSRVINQEIDNCCLQKNAKISSEERKMVFSLVSKEFELTLDVKAAQSSINHIIIGNASFGKKMDALCDGMSRAVKNSTTDYIANVLADKFYQKHIAPGVDIVKLRNEIPGYMSRVIQG,not soluble
13,SLAHIVTLNTPLREDWLAQLADVVTNPDELLHLLQIEADENLRAGQDARRLFALRVPRAFIARMEKGNPDDPLLRQVLTSRDEFIVAPGFSTDPLEEQHSVVPGLLHKYQNRALLLVKGGCAVNCRYCFRRHFPYAENQGNKRNWTVALEYIAAHPELDEIIFSGGDPLMAKDHELDWLLTQLEAIKHVKRLRIHSRLPIVIPARITDELVARFDQSRLQILLVNHINHANEVDEAFGLAMKKLRHVGVTLLNQSVLLRGVNDNARTLANLSNALFDAGVMPYYLHVLDKVQGAAHFMVTDDEARQIMRELLTLVSGYMVPRLAREIGGEPSKTPLDLQLRQC,not soluble
14,MYSDLAGKVVVITGSATGLGRAMGVRFAKEKAKVVINYRSRESEAHDVLEEIKKVGGEAIAVKGDVTVESDVVNLIQSAVKEFGTLDVMINNAGIENAVPSHEMPLEDWNKVINTNLTGAFLGSREAIKYFVEHDIKGSIINMSSVHEKIPWPLFVHYAASKGGVKLMTETLAMEYAPKGIRVNNIGPGAINTPINAEKFADPKKRADVESMIPMGYIGKPEEIAAVATWLASSEASYVTGITLFADGGMTLYPSFQAGRG,not soluble
15,MGSDKIHHHHHHMTKKRIFVTGASGCIGHYISETLIQETDYELYLLVRNPSKLQVDTQIRPGITVLQGDMQNISQFADLLSTIDIAVLTATAWGGEQTFDINVSKTIELLNLLDPDRCQQVIYFSTASVLDSHNQPLKEAGEIGTDYIRSKYECLHKISELGIASKITTVFPTLVLGGDSKKPYSHLTSGIPEVTKYVNLIRFLQADGSFHFIHGKDIASVVKYLIVNPPQENTSRRLVLGQKRLTANQAIEEVCTYLGKKISFRIPLSLSLANLIIAVFRIQMADWDRFCMNYRHFTYDTVINPDSFGLPNYCATMSDVLKISGVDSSHQ,not soluble
16,KERIIGDLSQPVAVRVRTLIQQMTLAEKVAQLVSESDSIPRLNLPAYNYWNECLHGVARAGEVTVFPQAINLASTWDTVLVKRVASAISTEARLKYLEIGKGLTYWSPTINMARDPRWGRNEETYGEDPHLTSRLGVAFVKGLQGDHPTYLKTVATIKHFVANNEENNRFSSSSQIPTKQLYEYYFPAYEACVKEANAQSVMTAYNAFNGVPPSGSHWLLDDVLRKEWGFDGFVVSDCGAIGVMNWQHRVVNSLEEAAALGVNSGCDLECGTTYKEKLVQAVEQGLISEAAIDRALTRVLTARFKLGEFDPMELVPYNHYDKKLLA,not soluble
17,MGSDKIHHHHHHMAIIKASTAASVAELTTDIDQQLPQLKAKPFSHELLTTSILTMLGTAAFVGIHHRYRKQHLADARVQDYVRGIYSQMNALQSASHSRSMLRHFRYSCQQAASTWQQAYRLPMNDKQSNSSGLATNNFSAMHTTTMLARPVCWVSGVASMPKDISLINEDNENDFGVVGIDADREVVWQTTMPERVHDIVVQPVFRYEDNTVSNHLNHRQSRDVVVMGRRPSEKFWVLDTATGQVRFAINAATNRHFYGHACYSLDGSKLYVTENDTLSLDGKIGAYAVDKGYQKIAEFDSYGIGPHELIMHPDGETLIIANGGIKTEQASREELNLDTMHPSLVYLNRHDGSLLEQITPEHNQMSVRHLAMHDDGTVMIGIQFQGEKHINVPLVLTHKRGDIKLTPLTMPNNQWQRFHQYIASVAVDSKCNLLCVTTPIGGCAAIFDLTTRALINSVSLPDCAGASIYSRKTGSGKGSVDAEQKSGFIVSDGQGQLTRLSVNDLTILDSELNSDAIAKNNTIGTDIKCHMMSFDNHLQAL,not soluble
18,MSLTDRTIGEAAELLGVTTRTLRHWDSIGLLQPSWRTTTDYRLYTEDDVERALQILIYRAAGIGLKDIAEVLDQPDSANQHLRRQRELLVEQIGQLHRMVRAVDEILGKDAISVKEKIEIFGEDLPKYQEEAFQRWGEGHHHHHH,soluble
19,MGSDKIHHHHHHMTVSKTKAKLVDVARQLFAKMGVENTTMNDIALASKKGRRTLYTYFKSKDEIYLAVVESELDILSDMMKRVADKDISPDKKIIEMIYTRLDAVKEVVYRNGTLRANFFRDIWRVEKVRKRFDAKEMQLFKSVLKEGQDKGVFHVDDVEMTAALVHYCVKGIEVPYIRGHIGANLDMETRKRYVANIVFGALHRTEINQ,not soluble
20,QVKLLESGPELVKPGASVKMSCKASGYTFTSYVMHWVKQKPGQGLEWIGYINPYNDGTKYNEKFKGKATLTSDKSSSTAYMELSSLTSEDSAVYYCVRGGYRPYYAMDYWGQGTSVTVSSAKTTPPSVYPLAPGSAAQTNSMVTLGCLVKGYFPEPVTVTWNSGSLSSGVHTFPAVLQSDLYTLSSSVTVPSSTWPSETVTCNVAHPASSTKVDKKIVPRDCTSHHHHHH,soluble
21,MSDILKCIGCGAPLQSEDKNKPGFVPEHNMFRDDVICRRCFRLKNYNEVQDVGLESEDFLKLLSGLADKKGIVVNVVDVFDFEGSFINAVKRIVGNKKIILAANKLDLLPKQINKRRVKEWLKRTARKYGLEADDVVLISAEKGWGIDDLLSSIANIRENEDVYIVGTTNVGKSTLINKLIEASVGEKDVVTTSRFPGTTLDMIDIPLDESSFMYDTPGIIQDHQMTHLVSEKELKIIMPKKEIKQRVYQLNEAQTLFFGGLARIDYVSGGKRPLVCFFSNDLNIHRTKTEKANDLWRNQLGDLLTPPGNPQNFDLNELKAVRLETGKEKRDVMISGLGFITIGPGAKVIVRVPKNVDVVLRNSILLEHHHHHH,soluble

# Reference: the DeepSol protein solubility set
